Data reported in patent US20250059285A1 (ARGENX, published 2025).

Experiments:
[1] = molecular target: T1, cynomolgus Gal10-His (WGS isoform) (cynomolgus); assay: SPR Biacore 3000, hFab on cynomolgus Gal10-His (WGS) captured by anti-His CM5
T1 construct: also called cynomolgus antigen
Description: (§1) The binding properties of the selected clones to human and cynomolgus Gal10 was analyzed via a capture method established on a Biacore 3000 instrument.
(§2) For this purpose, two approaches were used. In the first, two concentrations of the selected clones were applied on cynomolgus (WGS isoform) Gal10-His capture on a CM5 chip coated with a monoclonal anti-His antibody. The second approach involved a serial dilution that was applied on human or cynomolgus (WGS isoform) Gal10-His in the same set-up.

human Gal10-His [2] = molecular target: T2, human Gal10-His (human, UniProt Q05315 2-142, limits assumed); assay: BLI Octet RED96, Gal10-His captured on anti-Penta-His tips
T2 construct: also called hGal10-His; human Gal10-His tagged; not shown: His tag
T2 sequence: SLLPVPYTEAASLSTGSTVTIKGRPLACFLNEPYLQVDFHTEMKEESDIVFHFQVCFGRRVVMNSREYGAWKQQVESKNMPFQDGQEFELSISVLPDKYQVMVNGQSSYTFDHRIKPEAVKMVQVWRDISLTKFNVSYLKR

human Gal10-His [3] = molecular target: T2, human Gal10-His; assay: SPR Biacore 3000, purified hFab 20 nM on Gal10-His-coated CM5
human Gal10-His [4] = molecular target: T2, human Gal10-His; assay: SPR Biacore 3000, hFab on human Gal10-His captured by anti-His CM5
Description: as §1, §2

human Gal10-His [5] = molecular target: T2, human Gal10-His; assay: summary of periplasmic extract screening (BLI or SPR); control
human Gal10-His [6] = molecular target: T2, human Gal10-His; assay: SPR Biacore 3000, hFab on captured human Gal10-His; column head prints (M), the text gives nM
Description: as §1, §2

[7] = molecular target: T1, cynomolgus Gal10-His (WGS isoform); assay: SPR Biacore 3000, hFab on captured cynomolgus Gal10-His (WGS); column head prints (M), the text gives nM
Description: as §1, §2

human Gal10-His [8] = molecular target: T2, human Gal10-His; assay: SPR Biacore 3000, control on Gal10-His-coated CM5
Description: The off-rate of the remaining 25 clones of the ELISA experiment was determined by SPR on a Biacore 3000 instrument. Periplasmic extracts were injected on a CM5 sensor chip coated with 2500 RU Gal10-His.

human Gal10-His [9] = molecular target: T2, human Gal10-His; assay: SPR Biacore 3000, purified hFab (2 conc.) on Gal10-His captured by anti-His CM5
Description: The binding properties of the selected Fab clones to human Gal10 were analyzed via a capture method established on a Biacore 3000 instrument. Two concentrations of the selected Fab clones were tested on human Gal10-His immobilized on a CM5 chip coated with a monoclonal anti-His. As controls, the clone g7B07 and g7B07_N53A were injected at the beginning and the end of the run. Briefly, a CM5 chip was coated with a monoclonal anti-His antibody (4000 RU), then a fixed concentration of the human Gal10-His (25 μg/mL) was captured on the anti-His chip before receiving two concentrations of the clones in the human Fab backbone.

B1: g7B07 (human Fab) (Fab, V domains shown)
VH: EVQLLESGGGLVQPGGSLRLSCAASGFTFRSYDMSWVRQAPGKGLEWVSAIKNGGGITYYADSVKGRFTISRDNSKNTLYLQMNSLRAEDTAVYYCATTHGIGTLGFGSWGQGTLVTVSS
VL: SYELTQPLSVSVALGQTARITCDGNNIGSKSAQWYQQKPGQAPVLVIYADEYRPEGIPERFSGSNSGNTATLTISRAQAGDEADYYCQVWDGSAAVFGGGTQLTVL
notes: Human Fab backbone; their format is not certain; also called g7B07-hFab; germlined 7B07
Amplitude R0 [1]: 64 RU | koff [1]: 0.13 s⁻¹ | kon [1]: 1.9e+06 M⁻¹ s⁻¹ | kd fold difference to reference (human Gal10-His [2]): 1 fold | koff (human Gal10-His [2]): 0.00754 s⁻¹ | Fold off-rate compared to g7B07 (human Gal10-His [3]): 1 fold | koff (human Gal10-His [3]): 0.0069 s⁻¹ | Amplitude R0 (human Gal10-His [4]): 607 RU | koff (human Gal10-His [4]): 0.006 s⁻¹ | kon (human Gal10-His [4]): 670000 M⁻¹ s⁻¹ | kd, fold compared to g7B07 (BLI or SPR) (human Gal10-His [5]): 1 fold | Kd (human Gal10-His [6]): 9.08 nM | Kd [7]: 69.5 nM | Fold off-rate compared to g7B07 (human Gal10-His [8]): 1 fold | koff (human Gal10-His [8]): 0.00218 s⁻¹ | Kd (human Gal10-His [9]): 11.1 nM | kd-fold drop vs g7B07 (human Gal10-His [9]): 1 fold | koff (human Gal10-His [9]): 0.0047 s⁻¹ | kon (human Gal10-His [9]): 420000 M⁻¹ s⁻¹
